The target in assay [1] is T1, integrin αvβ3 receptor (UniProt P06756 31-992; P05106 27-718).
T1 construct: also called αvβ3 integrin; αvβ3 integrin receptor
The experiment in a line: ELISA on integrin αvβ3 receptor, anti-His6-HRP detection, curve fit. A general note: In an ELISA, binding on a coated surface is turned into a signal by an enzyme label.
Excerpt: The dissociation constant Kd is obtained by prism software with curve fitting method.

Assay [2] concerns the target T1, integrin αvβ3 receptor. The experiment in a line: ELISA on integrin αvβ3 receptor, one site-specific binding fit.
Excerpt: The curve and receptor binding ability parameters (see FIG. 19 and Table 14) are fitted by the binding ability of DTPA-modified protein and integrin αᵥβ₃ receptor through the One site-Specific binding formula in the Graph prism program.
Assay [3] has as its target T2, integrin αvβ3 receptor on cells (HUVEC, U87MG, MCF-7, ES-2-luc) (human, UniProt P06756 31-1048; P05106 27-788). The assay can be described thus: cell-based or functional assay.
Assay [4] deals with T2, integrin αvβ3 receptor on cells (HUVEC, …). The assay can be described thus: cell ELISA, U87MG against MCF-7.
Assay [5] shares this target. The assay can be described thus: cell-based or functional assay. This is another data set of the same source.
Assay [6] has the same target. The assay can be described thus: cell ELISA on U87MG cells, anti-His-HRP.
Excerpt: (§1) After reacted with anti-His-HRP antibody and TMB substrate, ELISA reader (OD450 nm) is used to detect the amount of recombinant protein bound to the cells, and the binding curve is drawn. The nonlinear curve of the prism software is used to make a diagram and calculate the dissociation constant (Kd).
(§2) The anti-His6-Tag-HRP antibody and TMB show the color reagent to detect the amount of recombinant protein bound to the cell, then the dissociation constant Kd value of the recombinant protein and the integrin αᵥβ₃ receptor is calculated and a binding curve is drawn.
For assay [7] the target is unchanged. The experiment in a line: cell ELISA on HUVEC cells, anti-His-HRP.
Excerpt: as §1, §2
Assay [8] shares this target. The experiment in a line: cell ELISA on MCF-7 cells (repeats Table 2).
For assay [9] the target is unchanged. The assay can be described thus: cell ELISA on HUVEC cells (repeats Table 2).
Assay [10] shares this target. The assay can be described thus: cell ELISA on MCF-7 cells (low αvβ3 expression), anti-His-HRP.
Excerpt: as §1, §2
For assay [11] the target is unchanged. The experiment in a line: cell-based or functional assay. The source holds these as a separate data set.
The target is the same in assay [12]. The experiment in a line: cell ELISA, HUVEC against MCF-7.
The target is the same in assay [13]. The experiment in a line: cell ELISA on U87MG cells (repeats Table 2).
The target in assay [14] is T1, integrin αvβ3 receptor. The experiment in a line: ELISA on integrin αvβ3 receptor (repeats Table 14).
In assay [15] the target is T1, integrin αvβ3 receptor. The assay can be described thus: ELISA on integrin αvβ3 receptor, after simulated labelling and challenge with 10-fold molar excess of EDTA.
Assay [16] concerns the target T1, integrin αvβ3 receptor. The assay can be described thus: ELISA on integrin αvβ3 receptor, after simulated labelling conditions.
The target in assay [17] is T1, integrin αvβ3 receptor. The experiment in a line: ELISA on integrin αvβ3 receptor; paragraph 109 says yCD can not be bound before and after modification.
The target of assay [18] is T3, integrin αvβ3 receptor on cells (HUVEC, U87MG, MCF-7, ES-2-luc) (human), P06756.
T3 chain 1: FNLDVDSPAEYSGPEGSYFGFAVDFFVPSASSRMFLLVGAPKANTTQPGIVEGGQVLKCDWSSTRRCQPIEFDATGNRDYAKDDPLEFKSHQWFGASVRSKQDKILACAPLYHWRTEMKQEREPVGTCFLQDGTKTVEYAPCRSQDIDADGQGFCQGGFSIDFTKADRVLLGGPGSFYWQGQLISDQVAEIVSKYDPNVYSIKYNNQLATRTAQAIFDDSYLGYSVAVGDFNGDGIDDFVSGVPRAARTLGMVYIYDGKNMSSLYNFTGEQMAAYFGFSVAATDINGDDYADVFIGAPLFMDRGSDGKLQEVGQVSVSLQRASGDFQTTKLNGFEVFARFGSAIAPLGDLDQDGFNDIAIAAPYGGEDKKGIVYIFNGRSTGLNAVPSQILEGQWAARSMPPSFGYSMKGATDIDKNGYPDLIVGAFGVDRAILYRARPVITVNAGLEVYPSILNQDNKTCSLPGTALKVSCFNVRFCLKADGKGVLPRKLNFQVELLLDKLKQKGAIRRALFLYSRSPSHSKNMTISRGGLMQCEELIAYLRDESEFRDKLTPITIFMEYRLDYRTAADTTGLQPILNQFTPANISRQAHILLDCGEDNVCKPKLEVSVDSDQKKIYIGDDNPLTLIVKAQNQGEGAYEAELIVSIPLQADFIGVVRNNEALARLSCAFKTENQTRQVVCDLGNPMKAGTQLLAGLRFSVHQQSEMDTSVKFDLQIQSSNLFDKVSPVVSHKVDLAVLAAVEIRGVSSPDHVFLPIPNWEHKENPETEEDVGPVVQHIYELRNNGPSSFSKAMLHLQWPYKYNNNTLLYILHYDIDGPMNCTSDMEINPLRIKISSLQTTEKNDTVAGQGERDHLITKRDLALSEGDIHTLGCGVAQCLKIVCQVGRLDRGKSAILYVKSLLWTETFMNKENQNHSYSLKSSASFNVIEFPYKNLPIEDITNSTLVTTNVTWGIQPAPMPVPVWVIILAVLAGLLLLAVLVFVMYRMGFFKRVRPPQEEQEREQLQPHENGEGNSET
T3 chain 2: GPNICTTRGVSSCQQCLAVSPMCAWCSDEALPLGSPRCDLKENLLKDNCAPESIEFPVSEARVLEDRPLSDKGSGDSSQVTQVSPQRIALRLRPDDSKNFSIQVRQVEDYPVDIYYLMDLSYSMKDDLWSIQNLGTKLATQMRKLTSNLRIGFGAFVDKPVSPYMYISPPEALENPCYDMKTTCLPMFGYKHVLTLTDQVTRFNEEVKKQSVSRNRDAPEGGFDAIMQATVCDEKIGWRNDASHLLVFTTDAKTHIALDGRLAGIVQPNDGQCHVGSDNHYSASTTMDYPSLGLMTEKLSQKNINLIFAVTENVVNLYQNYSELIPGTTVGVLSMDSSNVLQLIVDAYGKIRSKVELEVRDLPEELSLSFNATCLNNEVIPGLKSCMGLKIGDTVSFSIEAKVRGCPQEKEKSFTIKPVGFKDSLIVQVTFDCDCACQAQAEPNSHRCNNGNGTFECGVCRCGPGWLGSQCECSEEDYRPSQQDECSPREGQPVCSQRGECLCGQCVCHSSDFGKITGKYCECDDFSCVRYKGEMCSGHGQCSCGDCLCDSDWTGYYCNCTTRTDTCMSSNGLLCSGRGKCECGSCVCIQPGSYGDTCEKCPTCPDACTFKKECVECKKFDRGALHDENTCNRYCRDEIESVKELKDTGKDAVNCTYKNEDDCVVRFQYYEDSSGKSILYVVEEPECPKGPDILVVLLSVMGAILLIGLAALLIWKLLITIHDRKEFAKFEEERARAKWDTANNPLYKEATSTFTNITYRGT
The assay can be described thus: competitive cell uptake on ES-2-luc cells, cRGDfk at 1000-fold molar excess; labelled competitor ^111In-DTPA-RGD4C-yCD. Conditions: remark: other sources report otherwise.

In assay [19] the target is T3, integrin αvβ3 receptor on cells (HUVEC, …). The assay can be described thus: competitive cell uptake on HUVEC cells, cRGDfk at 1000-fold molar excess; labelled ^111In-DTPA-RGD4C-yCD. The settings on record: remark: other sources report otherwise.
The target is the same in assay [20]. The experiment in a line: competitive cell uptake on MCF-7 cells (low αvβ3), cRGDfk at 1000-fold molar excess; labelled ^111In-DTPA-RGD4C-yCD. The settings on record: remark: other sources report otherwise.

Ends that are not written are not given here.

The Kd is the constant that tells how readily two partners part at equilibrium. Lower therefore signals a tighter complex.

B1: RGD4C-yCD (other)
chain: MACDCRGDCFCVTGGMASKWDQKGMDIAYEEAALGYKEGGVPIGGCLINNKDGSVLGRGHNMRFQKGSATLHGEISTLENCGRLEGKVYKDTTLYTTLSPCDMCTGAIIMYGIPRCVVGENVNFKSKGEKYLQTRGHEVVVVDDERCKKIMKQFIDERPQDWFEDIGELEHHHHHH
notes: Fusion of the RGD4C peptide with yeast cytosine deaminase, expressed from pET28a(+) in E. coli and detected by its His6 tag; also called RGD4C-yCD recombinant protein
B1: the Kd with integrin αvβ3 receptor [1] was 0.0395 µM; with integrin αvβ3 receptor [2], 0.0207 µM; in assay [6], 0.0537 µM; in assay [7], 0.0475 µM; in [8], 0.366 µM; in assay [9] it was 0.0475 µM. In addition, the Kd in assay [10] stood at 0.366 µM; in assay [13] it was 0.0537 µM; with integrin αvβ3 receptor [14], 0.0207 µM. Further, the “IC50 of 5-FC, MTT cytotoxicity, HUVEC cells incubated with 500 nM protein then washed” value in [3] stood at 23.6 µM. Further, the “IC50 of 5-FC, MTT cytotoxicity, MCF-7 cells (low αvβ3) incubated with 500 nM protein then washed” value in [3] was 5130 µM. Further, the “IC50 of 5-FC, MTT cytotoxicity, U87MG cells incubated with 500 nM protein then washed” value in assay [3] came out at 37.1 µM. Also, the entries for the “fold cell binding ability against MCF-7” value in assay [4] and in assay [12] were around 6.8 fold and around 7.7 fold, respectively. In addition, in [5], the “IC50 of 5-FC, MTT cytotoxicity, HUVEC cells incubated with 500 nM protein then washed (repeats Table 3)” value is 23.6 µM. In addition, in [5], the “IC50 of 5-FC, MTT cytotoxicity, MCF-7 cells (low αvβ3) incubated with 500 nM protein then washed (repeats Table 3)” value was 5130 µM. The “IC50 of 5-FC, MTT cytotoxicity, U87MG cells incubated with 500 nM protein then washed (repeats Table 3)” value in [5] was 37.1 µM. Further, the “protein reaction concentration IC50 of cytotoxic effect, MTT, HUVEC cells, 100 µM 5-FC” value in assay [11] turned out to be 0.209 µM. For the same molecule, in [11], the “protein reaction concentration IC50 of cytotoxic effect, MTT, U87MG cells, 100 µM 5-FC” value amounted to 0.177 µM.

B2: In-DTPA-RGD4C-yCD (other)
chain: MACDCRGDCFCVTGGMASKWDQKGMDIAYEEAALGYKEGGVPIGGCLINNKDGSVLGRGHNMRFQKGSATLHGEISTLENCGRLEGKVYKDTTLYTTLSPCDMCTGAIIMYGIPRCVVGENVNFKSKGEKYLQTRGHEVVVVDDERCKKIMKQFIDERPQDWFEDIGELEHHHHHH
modifications: DTPA on primary amines, loaded with the stable isotope of indium
notes: also called In-DTPA- RGD4C-yCD 10x EDTA
In the case of B2, the equilibrium dissociation constant (Kd) was 0.0346 µM in the assay with integrin αvβ3 receptor [15] and 0.0254 µM with integrin αvβ3 receptor [16].

B3: DTPA-yCD (enzyme)
chain: MVVTGGMASKWDQKGMDIAYEEAALGYKEGGVPIGGCLINNKDGSVLGRGHNMRFQKGSATLHGEISTLENCGRLEGKVYKDTTLYTTLSPCDMCTGAIIMYGIPRCVVGENVNFKSKGEKYLQTRGHEVVVVDDERCKKIMKQFIDERPQDWFEDIGELEHHHHHH
modifications: DTPA on primary amines, 1.16 DTPA per protein on average
Regarding B3, in the assay with integrin αvβ3 receptor [17], the binding result was “no binding”.

B4: cRGDfk (peptide)
peptide: RGDFK
modifications: not fully specified (residues 4, 5); also: prefix c and lower-case f, k not explained
For the molecule B4, the percent decrease of uptake is 70% in assay [18], 65% in assay [19] and 45% in assay [20].

Source of the values: patent US20190211057A1 (NATIONAL YANG MING UNIVERSITY, published 2019).
